Paper PMC13483431, “Structure and mechanism of the HSV-1 origin-binding protein UL9” (Journal of Virology, 2025)

How the values were obtained:
[1] = molecular target: T1, full-length HSV-1 ICP8 with an N-terminal 8xHis tag (HSV-1, UniProt P04296 1-1196); assay: pull-down; Strep-tag pull-down: 50 μg Strep-tagged UL9^CTD or full-length UL9 as bait with an equal amount of ICP8; 50 mM Tris pH 8.0, 150 mM NaCl, 1 mM DTT, 0.05% Tween-20; 1 h at 4 °C; SDS-PAGE with Coomassie; details: both partners purified
T1 construct: also called His-tagged ICP8; source: insect cells (baculovirus, as UL9^FL), purified (Ni-NTA); not shown: 8xHis, N-terminal, kept
T1 sequence: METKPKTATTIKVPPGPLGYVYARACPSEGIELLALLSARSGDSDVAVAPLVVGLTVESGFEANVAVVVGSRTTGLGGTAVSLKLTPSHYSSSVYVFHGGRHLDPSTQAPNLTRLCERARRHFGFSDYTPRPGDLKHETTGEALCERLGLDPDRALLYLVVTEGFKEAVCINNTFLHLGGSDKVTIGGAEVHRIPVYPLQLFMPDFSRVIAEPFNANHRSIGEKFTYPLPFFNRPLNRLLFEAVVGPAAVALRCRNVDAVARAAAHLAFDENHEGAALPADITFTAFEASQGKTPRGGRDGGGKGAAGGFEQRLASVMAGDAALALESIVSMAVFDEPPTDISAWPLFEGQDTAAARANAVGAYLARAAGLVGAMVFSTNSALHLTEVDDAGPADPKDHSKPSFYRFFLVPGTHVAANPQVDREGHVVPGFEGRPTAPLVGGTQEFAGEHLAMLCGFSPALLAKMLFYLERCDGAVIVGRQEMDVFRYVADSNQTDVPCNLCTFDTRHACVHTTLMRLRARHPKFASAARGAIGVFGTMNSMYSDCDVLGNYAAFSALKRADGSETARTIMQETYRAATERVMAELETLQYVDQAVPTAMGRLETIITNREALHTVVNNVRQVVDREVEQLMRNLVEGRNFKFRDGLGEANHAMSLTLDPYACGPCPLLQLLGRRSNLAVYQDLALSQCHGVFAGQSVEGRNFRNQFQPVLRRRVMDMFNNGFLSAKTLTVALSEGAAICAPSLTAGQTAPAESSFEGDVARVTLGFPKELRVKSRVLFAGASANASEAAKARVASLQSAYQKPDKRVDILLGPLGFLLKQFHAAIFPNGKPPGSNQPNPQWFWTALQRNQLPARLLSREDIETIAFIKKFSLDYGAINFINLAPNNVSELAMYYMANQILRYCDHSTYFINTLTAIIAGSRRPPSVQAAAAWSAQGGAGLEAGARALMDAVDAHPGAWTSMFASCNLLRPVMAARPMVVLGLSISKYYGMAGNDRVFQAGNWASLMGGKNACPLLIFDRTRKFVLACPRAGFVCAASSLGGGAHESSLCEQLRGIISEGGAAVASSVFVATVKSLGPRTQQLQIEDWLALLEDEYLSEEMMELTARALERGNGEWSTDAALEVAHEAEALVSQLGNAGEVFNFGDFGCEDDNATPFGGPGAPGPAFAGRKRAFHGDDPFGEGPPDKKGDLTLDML

[2] = molecular target: T1, full-length HSV-1 ICP8 with an …; assay: pull-down; GST pull-down: 50 μg GST-tagged UL9^CTD variants or C-tail peptides on GST beads with an equal amount of ICP8; 50 mM Tris pH 8.0, 150 mM NaCl, 1 mM DTT, 0.05% Tween-20; 1 h at 4 °C; SDS-PAGE with Coomassie; details: both partners purified
UL9CTD wild type = UL9CTD wild type (HSV-1, UniProt P10193 536-851); assay: MST; MST: 50 mM Tris pH 8.0, 150 mM NaCl, 1 mM DTT, 0.05% Tween-20, 40 nM FAM-dsDNA, 25 C; EMSA: 50 mM Tris pH 8.0, 50 mM NaCl, 1 mM DTT, 40 nM FAM-dsDNA, 0.5-3.5 uM protein, 4 C; cryo-EM complex: 20 mM HEPES pH 7.0, 150 mM NaCl, 1 mM DTT; details: protein: recombinant; tags: N-terminal 8xHis; blunt

B1: Strep-tagged UL9 C-terminal domain (residues 536-851) (domain or fragment)
chain: PEASLPAQAAETEEVGLFVEKYLRSDVAPAEIVALMRNLNSLMGRTRFIYLALLEACLRVPMATRSSAIFRRIYDHYATGVIPTINVTGELELVALPPTLNVTPVWELLCLCSTMAARLHWDSAAGGSGRTFGPDDVLDLLTPHYDRYMQLVFELGHCNVTDGLLLSEEAVKRVADALSGCPPRGSVSETDHAVALFKIIWGELFGVQMAKSTQTFPGAGRVKNLTKQTIVGLLDAHHIDHSACRTHRQLYALLMAHKREFAGARFKLRVPAWGRCLRTHSSSANPNADIILEAALSELPTEAWPMMQGAVNFSTL
notes: HSV-1 UL9 C-terminal domain, residues 536-851; As the His-tagged construct, with the N-terminal 8xHis tag replaced by a Strep-tag; also called UL9^CTD; Strep-tagged UL9^CTD; source: E. coli BL21 (DE3), purified (Strep-Tactin XT, Superdex 75); not shown: Strep-tag, N-terminal, kept
- binding result [1]: binds

B2: GST-tagged UL9 C-terminal domain (residues 536-851) (domain or fragment)
chain: B1 chain
notes: HSV-1 UL9 C-terminal domain, residues 536-851; Cloned into pGEX-6P-1; also called UL9^CTD; source: E. coli BL21 (DE3), purified (Glutathione-Sepharose 4B); not shown: GST, N-terminal, kept
- binding result [2]: binds

B3: 15-bp oriS Box I dsDNA (dsDNA)
DNA 1: GCGTTCGCACTTCGT
DNA 2: ACGAAGTGCGAACGC
- Kd (UL9CTD wild type): 2.23 ± 0.42 µM
